Assay results published in the DeepSol protein solubility set.

Test: soluble on expression in E. coli; label from the status in PepcDB or PDB records

| Sequence | soluble on expression in E. coli |
| --- | --- |
| MKRIARLLLSCICLALLSGCLYPQERLKQNQIPYKDQVAAVQSAVDEYRKATGGLLPIKTRDMNTPMYLKYPVDFQKLVPRYMQEPPGNAYESGGVFQYMIIDAETNPTVKLLDLRLAERIRDLKLRLSMYTDKHKYPPFQDVVAPGVFTLDYKKLGYKEPPYVVSPFSGNNLPFVIDGNGEIYIDYRSDLYAALKKYPHHYKPGDDIRPILTDHSLFVPAYSLPYTIDAKTNEPIFFTK | not soluble |
| MTASSDPHVIFVGSGINSLVSAALLATRGKRVLVLERNDRLGGCIRTEELFPGYHHEVMSSWYPLFVGSPGYAELKPALEQAGLAFLCPDYTTGLVWPDGRGLALKQDLNDAVQRLEALAPGDGAALGAMAARLFGPDAALTFGLLGQNPYGWAMLKLLFGQWRQRGTDGLAAFAADALETFRRWSERTLRSDLARALIAPWVLHSGLGPDDAGSALIGKLTFASVVSGGMPVVKGGGSRLVEALARVIEQHGGTLMTGTPVEQVLTEGQGRRRRATGVAVTGGRRLRAQQAVVCNVTPQQLYGRLLPEMPQPLRERAEGYRYGRGDMQIHFALNAPPAWREAELCKVPLVHLTESLEQVCASVTQANNGLLPSRPTLGIGQPTVADPSRAPAGGWILWIQMQELPTRLKGDAAGEIPVPADGRWNEAVREAFADRVQARLERVMPGLAERIVGRRAYSPADLEVLNCNLVGGDPYSGVCSPDQFFWLRPFAGSQGARAHRTPLANVFHIGASTHPGPGLGAGSGFMVAQHLSPR | not soluble |
| MANVEAIPGYLTATFPTLPIEIKDYVSAILKENSDEITSLDEVMDAVGEHLQASVENLCEVGAKNACQQLLKLLHGDNLPKAIKQQEATTKRLEQTVDMAAENQNFEALQSIWKVQTRDTPTTVDKKKLAKAEDRAAAKAEARADAPVERKKKKNEPSATASQAPIRDSGARGANSKDIKLESVDISIGTKQLLSCADVTMAFGRRYGLVGRNGIGKTTLLKMISSQQLKIPAGISMLSVEQEVEGDDTLVLDAVLMSDTKRQTLLDREKTLQSRINKDNINDAEKTKWNDELSKLYIEMEALQLDKAPARASSLLYGLGFTPDEQKRPTKEFSGGWRMRVALARALFVKPDLLLLDEPTNMLDMRAVYWLEGHLQGWEGTILTVSHDRKFLNEICTDIVHLHTRRLDHYKGNYDQFEKTMKEKLTQQQREYESQQQLRQHTQEFIDKFRYNAKRAPMVQSRIKMLEKLPVLLPVELESDIHFKFPECEVLSNPVLQLDEVSFRYNEDSPYLFRKLNLGTHANSRICIVGENGAGKTTLLKLLLDDLQPSVGLRNVNRRIRIAYFTQHHVDQLDMETSAIEVLMKNHPGKTQEDYRAALGRFGLAGDMALQSVETLSGGQKSRLAFANLALMQPNYLILDEPTNHLDVETVEALGKALNVFNGGVVLVSHDEQLIELVCKELWVVKDRMVTTLEGGLEEYRKQVYKQLQLTA | not soluble |
| MSLELTRYEIIKILMEYVTDEIVVCNIGIPSKELFKINDREKNFYMLGSMGLSSSIGHGLALSVNEKVIAIDGDGSVLMNMGSLATIGKTTPKDFLLLIVDNCAYGSTGNQETHSTCTDLYQVSKACGIDSIGVFNEEQLRDAVKLALSESGTKVIVAKARPHNENVPNINLVPTEIKHRFMNAIKKEGHHHHHH | not soluble |
| MLYQSETLQLHWLENGIAELVFDAPGSVNKLDTKTVANLGEALNVLEKQSELKGLLLRSAKTALIVGADITEFLSLFNAPPEKLHQWLVFANTIFNRLEDLPVPTISAINGYALGGGCECILATDFRIASPEARIGLPETKLGIMPGFGGSVRLPRLLGADSALEIIATGKDVTANDALKIGLVDAVVDPEKLVGSALTMLKQAIDGKLDWQAARRPKLEPLKLNPTEAAMCFTIAKGRVMQVAGKHYPAPLTAVKTIEAAAKFGRTEALNLETNSFVPLAGSNEARALVGIFLNDQYVKAQAKKLSKGVAAPKLAAVLGAGIMGGGIAYQSALKSVPVIMKDINENSLDLGMNEAAKLLNKQLERGKVDGLKMASILATIRPTLDYAGIERAQVIVEAVVENPKVKAAVLAEVEALIGEDTVLASNTSTIPIDQLAKSLKRPENFCGMHFFNPVHRMPLVEIIRGAKTSDKTLAAVVAYATQMGKTPIVVNDCPGFFVNRVLFPYLAGFGMLVRDGGDFHQIDKVMEKQFGWPMGPAYLLDVVGIDTAHHAQAVMAAGFPERMNKDYRDAVDVMFDNQRFGQKNGQGFYRYTQDAKGKPRKENDEQVDKLLAEISQPLQEFSDEDIIARTMIPMINEVVRCLEEGIIASAAEGDMALVYGLGFPPFHGGVFRYLDTLGSANYVEMAQRYAHLGALYHVPAGLRAKAEHNESYYPVAAALLDVSTNQPA | not soluble |
| MASVSFGGLATGLDSNTLISQLMYLERAPERILESKKSTISSQIDVYTQVTNLLNSFKTLAAGMNTATGFMGKTTSVGDSTVATATSSSIASPGSFNLTVNSLAKNERQVVDQGYASADALNFKTGTFTISGVATPITIAEGQNSLQGIASAINASGANVTASIINDGSANPYRLVITGKDTNNYTLNFSGLTGDPASGSAYTTPTITKSGPTYQAGAAASFSVNGIAITKTSNIVTDVIPGVTLTLLKEGGATTTVTVGNDTSGVTKKINDFVGAYNAAMSQINKQSEYNATTKKGGVLSGDSTLRSVKTQLQNVLTTPVAGITGKYSTLADIGITTDRSNGTLTVDATKLADALGSNFNDVVELFTKNGGVSNLDTEKYGVAEQFRKVIDRFTHAYEGPSSTANGIISSRVRGLNDTIKSIDDQIDAMEVRMERKEEALKKQFTAMETLVSSLTTQGNSLISYLYGS | not soluble |
| MEEPQITVGILSGKEIEFSFPESFTTPDGTKVSGAQKAVYQKEKIYWSGKEYDELIFYPQPNAGIFFELKDVTIGINFHWERKEVQRFQGALKIIVEGETLTAINVISIEDYLTSVISSEMSATASLELLKAHAVISRSWLINKLRVENEKWKATIQPDSAANSPHSTLHSQLIKWYDHEAHTHFDVCADDHCQRYQGITRASTPQAIEAVSATRGEVLMYEGKICDARFSKCCGGAMEEFQNCWENVRHPYLTGKRDYIPESHASDSEKQITGPAIQLPDLTQEEEADRWIRTSPDAFCNTQDKKILSQVLNNYDQETTDFYRWKISYSQQELAELIHQRSGIDFGEIIDLIPVERGTSGRLIRLKIVGTLRTLTIGKELEIRRTLSPSHLYSSAFLVDKEKGEEGNVPTRFTLTGAGWGHGVGLCQIGAAVMGERGYYYKDILAHYYPGSRLEKQYE | not soluble |
| MGSDKIHHHHHHMLAQVPNTISLQQELTPLLQHEWLPHINQRDYHSGSQGGWDVLALRCAEEYHAAHPILQAFSISAANEWDNLPALESSPTLLDFIQSLACPVKSVRFMRLHAGAEIKPHRDQGLSLEQGEARLHLPLQTHDQLYFYVNDQRVPMQAGELWYINADQSHWVANKGSSARINLVIDCKVNSWLRELIHGAKIKA | not soluble |
| MHTDINALFAALWQDYIQMTPSAAKVHELLGHGKPIINDHIALRTFNIAKVNLAVLAEHFTSLGYVACGDYKFEQKKLIAKHFEHPDATQPKVFISELLVEEFSSALQSTIQGLIAQVDEQATKADNFIYSGRHWTLDSKTYEALLEESEYAAWVAAFGYRANHFTVSINHLEGFDTLESVNDALKQAGFVLNTSGGEIKGSPEVLLEQSSTMADKIAVEFSDATVEIPSCFYEFALRYPKANGELYTGFVAASADKIFESTNAKKAAAALEHHHHHH | not soluble |
| MSASVPADLRNLRACLLCSLVKSVESFQKEGCENCEDVLHLKGDEEKVYDCTSANYDGMIAAMSNNESWVCKWQKMQRKVKGMYAISVSGVLPNNIVSELKSLGVRYKPNQRDYSTQFKK | not soluble |
| MGSDKIHHHHHHMKPQLIASCWTSAGDAAPDRDDLSSPVAIDERIALVAETGWAGIGLVHADLIKARDTIGYEELRRRIHAAGIEIIEVEFLNGWWATGAERQESDAVRADLFAAAQALGSPHIKVGAGEGTNGVVPIAHMASAFTDLAAEAEAHGVKLALEATPFSHLKTIYDALEVVSHSDSPSAGLMVDIWHTAKIGIPNDELWRNIPLSKVNAVEVDDGFIDTPIDLFDDSTNRRAYCGEGEFDPASFIRGAIDAGWTGAYGVEIISAEHRSLPVKEGLQRAFDTTIAAFEQAARLAPSTN | not soluble |
| MRKLVVGITIASLMGCSMGHRDPVEVKQALNESINQANSRALEEIPSSVEADLMPNLDSNVSSDNGTSKRFRIQANAVEARSFFASLVKGTEYSVAIHPAVQGNITVNLSDVTLDEVLSVVQNMYGYDVMKSGKVIQVYPAGMRTVTIPVDYLQFKRSGRSLTSIVTGSVTSAGTSNSGGSSDSSDSSDSNNSNNGNDSSTTSTGGTRIETITESDFWPMLQQAVANLIGSGKGQSVVVTPQAGVITVRAFPDDIREVREFLGVSQERMQRQVILEAKILEVTLSDGYQQGINWSNLSASIGNSGSIIVNRPASALPPLDAIGTLLGGQTNVTISDGNFEAVLNFMSTQGDLNVLSSPRITAANNQKSVIKVGTDQYFVTELSSNAGNGENSNAVPEVELTPFFSGISLDVTPQIDNKGNVFLHVHPAVIEVTEEVKQLNLGGDFQNIQLPLAKSSIRESDSVIRAKDGDVVVIGGLMKQQNVEQVSKVPFLGDVPALGHLFRNTSNVTQKTELVILLKPTVVGVNSWQKELERSRDLLQEWFPDAQLEHHHHHH | not soluble |
| MKFLFYLSADNLEIARKEVLVLAERYGWVEDYQFEERLLLLDYAGEKFFERLAYTNEVTKIYDICSVSELEQVFSEIPVYDRLCCVRVKGGKGKTALERKLGALLWKRGAKVSVSNPEIVYKVYIQDDKCYVGLLEFERDTRQFFLRRPDRRPFLMPSAIKPKLARALVNLTGVLEGETLLDPMCGTGSFLIEAGLMGINPIGIDFIEKIVRGCRVNLEYYGIEGSVLLGDAKNLPLRDESVRGIATDYPYLRSTKAAGTLDELYSKTSEEFERVLKKGGRAAIVTNIDVESFFSNFEIEMKTEERVHGSLTRRIYLLRR | not soluble |
| MGKDGEGDKKRETMAVMSLMKDQQNPIQQFQVKFKEIETGFKSWLSKQKLPVEAAVVTAMGGVQGAFIGGLMGTLSPEMPQAGIDPQAMASLKQTQALVGGPLVQARNFAAITGVNAGIACVMKRIRGKEDLESAVVAAFGSGVAYSLVSAGLQGQPMNAITTAAGFAVFQGVFFKLGERFSKPSVEDPYYTRGRSMLLKLGLEKYEKNFKKGLLADPTLPLLTDSALRDVSIPPGPRLLILDHIQRDPELKGKRGSRG | not soluble |
| MGSDKIHHHHHHMKIAFDVDVIKHLPITQMVRQVSEWGYKYIEQSPHPRINPFYKHPKAGRDTMQEYKRALQNYGVEISSFIVVYRWSGPDEERRRAAVTNWKRMIEIAVDMGVQVINTELSGTPDEPEICEEMWYRSMEELLPIVEREGIRIEIQSHPWDFCELNDETVDMVQSLRSDNVTYLYSAPHGFFYDKGQGDVARMLNYAGADLSHVLLADTHNHTLPCRYIMNPPGVNATIHQHIGLGEGEVDFDALFQALREMDFANRTFKVGGEAIITTSLFGYPEKMSVQAVETRERIERELLGR | not soluble |
| MGSDKIHHHHHHMNSLQFPRHGDKENSAFFEEYLVKLLEERDAMGLTAMVHEIDALMITVDPGHSVKYVAELCFMTSYHYLVTLESESHWTHVLRIDLDSPDLLVREVKDPNLRGIFRSLNEIYPVGARKPNSRYMGEIIRVNNLHDVVKLQQEREFRFFTQDEVRKLELPGNLAVSKPSPYTHNIVAYLERKPDEMRVYSLGVSRVDAELQMAYEAAKRLQEKLNFADLLLPIDHLATRVYSQNREVAILEYLSWSSYYFWGAYNIFDQNSSTNVTKSAHGLPESKSPAKVFTANNTPYFVNHLEKLPSPTETFVRNYGPRLHHIAVAVRDGERDGLEHIEFAVNAIASQGKGFLLDVIGSREEGLKQIFSNASEHSSLIVEYVQRFGDFQGFFTKENVAVLTEAAGREEGVKSGASLG | not soluble |
